± gives the uncertainty stated by the source.
B1: Zinc finger homeobox protein 4, residues 2086 to 2141; numbered along this chain, Q86UP3 (parent)
chain: RPRTRITDDQLKILRAYFDINNSPSEEQIQEMAEKSGLSQKVIKHWFRNTLFKERQ

Variants of: B1
Assay: abundance fitness (aPCA) (normalised: wild type 0, dead -1); higher = more abundant; growth selection in yeast, the domain comes from the species named
Conditions: Homo sapiens

| Variant | abundance fitness |
| --- | --- |
| RPRWRITDDQLKILRAYFDINNSPSEEQIQEMAEKSGLSQKVIKHWFRNTLFKERQ [T4W] | -1.16 ± 0.16 |
| RPRFRITDDQLKILRAYFDINNSPSEEQIQEMAEKSGLSQKVIKHWFRNTLFKERQ [T4F] | 0.036 ± 0.12 |
| RPRMRITDDQLKILRAYFDINNSPSEEQIQEMAEKSGLSQKVIKHWFRNTLFKERQ [T4M] | 0.224 ± 0.11 |
| RPRTRSTDDQLKILRAYFDINNSPSEEQIQEMAEKSGLSQKVIKHWFRNTLFKERQ [I6S] | -0.245 ± 0.07 |
| RPRTRCTDDQLKILRAYFDINNSPSEEQIQEMAEKSGLSQKVIKHWFRNTLFKERQ [I6C] | -0.318 ± 0.084 |
| RPRTRATDDQLKILRAYFDINNSPSEEQIQEMAEKSGLSQKVIKHWFRNTLFKERQ [I6A] | -0.069 ± 0.086 |
| RPRTRTTDDQLKILRAYFDINNSPSEEQIQEMAEKSGLSQKVIKHWFRNTLFKERQ [I6T] | -0.246 ± 0.074 |
| RPRTRKTDDQLKILRAYFDINNSPSEEQIQEMAEKSGLSQKVIKHWFRNTLFKERQ [I6K] | -0.433 ± 0.13 |
| RPRTRDTDDQLKILRAYFDINNSPSEEQIQEMAEKSGLSQKVIKHWFRNTLFKERQ [I6D] | -0.148 ± 0.13 |
| RPRTRQTDDQLKILRAYFDINNSPSEEQIQEMAEKSGLSQKVIKHWFRNTLFKERQ [I6Q] | -0.389 ± 0.11 |
| RPRTRETDDQLKILRAYFDINNSPSEEQIQEMAEKSGLSQKVIKHWFRNTLFKERQ [I6E] | -0.18 ± 0.2 |
| RPRTRMTDDQLKILRAYFDINNSPSEEQIQEMAEKSGLSQKVIKHWFRNTLFKERQ [I6M] | 0.369 ± 0.094 |
| RPRTRWTDDQLKILRAYFDINNSPSEEQIQEMAEKSGLSQKVIKHWFRNTLFKERQ [I6W] | -0.553 ± 0.11 |
| RPRTRHTDDQLKILRAYFDINNSPSEEQIQEMAEKSGLSQKVIKHWFRNTLFKERQ [I6H] | -0.271 ± 0.071 |
| RPRTRFTDDQLKILRAYFDINNSPSEEQIQEMAEKSGLSQKVIKHWFRNTLFKERQ [I6F] | 0.002 ± 0.07 |
| RPRTRGTDDQLKILRAYFDINNSPSEEQIQEMAEKSGLSQKVIKHWFRNTLFKERQ [I6G] | -0.381 ± 0.09 |
| RPRTRLTDDQLKILRAYFDINNSPSEEQIQEMAEKSGLSQKVIKHWFRNTLFKERQ [I6L] | 0.006 ± 0.062 |
| RPRTRVTDDQLKILRAYFDINNSPSEEQIQEMAEKSGLSQKVIKHWFRNTLFKERQ [I6V] | -0.04 ± 0.077 |
| RPRTRYTDDQLKILRAYFDINNSPSEEQIQEMAEKSGLSQKVIKHWFRNTLFKERQ [I6Y] | -0.047 ± 0.08 |
| RPRTRRTDDQLKILRAYFDINNSPSEEQIQEMAEKSGLSQKVIKHWFRNTLFKERQ [I6R] | -0.596 ± 0.077 |
| RPRTRPTDDQLKILRAYFDINNSPSEEQIQEMAEKSGLSQKVIKHWFRNTLFKERQ [I6P] | -0.103 ± 0.076 |
| RPRTRNTDDQLKILRAYFDINNSPSEEQIQEMAEKSGLSQKVIKHWFRNTLFKERQ [I6N] | -0.377 ± 0.084 |
| RPRTRITSDQLKILRAYFDINNSPSEEQIQEMAEKSGLSQKVIKHWFRNTLFKERQ [D8S] | 0.023 ± 0.081 |
| RPRTRITLDQLKILRAYFDINNSPSEEQIQEMAEKSGLSQKVIKHWFRNTLFKERQ [D8L] | -0.127 ± 0.079 |

| Variant | abundance fitness |
| --- | --- |
| RPRTRITMDQLKILRAYFDINNSPSEEQIQEMAEKSGLSQKVIKHWFRNTLFKERQ [D8M] | 0.113 ± 0.088 |
| RPRTRITFDQLKILRAYFDINNSPSEEQIQEMAEKSGLSQKVIKHWFRNTLFKERQ [D8F] | -0.056 ± 0.14 |
| RPRTRITEDQLKILRAYFDINNSPSEEQIQEMAEKSGLSQKVIKHWFRNTLFKERQ [D8E] | 0.145 ± 0.083 |
| RPRTRITWDQLKILRAYFDINNSPSEEQIQEMAEKSGLSQKVIKHWFRNTLFKERQ [D8W] | -0.092 ± 0.081 |
| RPRTRITRDQLKILRAYFDINNSPSEEQIQEMAEKSGLSQKVIKHWFRNTLFKERQ [D8R] | -0.183 ± 0.067 |
| RPRTRITKDQLKILRAYFDINNSPSEEQIQEMAEKSGLSQKVIKHWFRNTLFKERQ [D8K] | 0.012 ± 0.098 |
| RPRTRITIDQLKILRAYFDINNSPSEEQIQEMAEKSGLSQKVIKHWFRNTLFKERQ [D8I] | 0.036 ± 0.14 |
| RPRTRITPDQLKILRAYFDINNSPSEEQIQEMAEKSGLSQKVIKHWFRNTLFKERQ [D8P] | 0.034 ± 0.11 |
| RPRTRITNDQLKILRAYFDINNSPSEEQIQEMAEKSGLSQKVIKHWFRNTLFKERQ [D8N] | -0.28 ± 0.11 |
| RPRTRITQDQLKILRAYFDINNSPSEEQIQEMAEKSGLSQKVIKHWFRNTLFKERQ [D8Q] | 0.081 ± 0.097 |
| RPRTRITGDQLKILRAYFDINNSPSEEQIQEMAEKSGLSQKVIKHWFRNTLFKERQ [D8G] | -0.004 ± 0.067 |
| RPRTRITTDQLKILRAYFDINNSPSEEQIQEMAEKSGLSQKVIKHWFRNTLFKERQ [D8T] | -0.172 ± 0.1 |
| RPRTRITCDQLKILRAYFDINNSPSEEQIQEMAEKSGLSQKVIKHWFRNTLFKERQ [D8C] | 0.046 ± 0.11 |
| RPRTRITHDQLKILRAYFDINNSPSEEQIQEMAEKSGLSQKVIKHWFRNTLFKERQ [D8H] | -0.019 ± 0.16 |
| RPRTRITADQLKILRAYFDINNSPSEEQIQEMAEKSGLSQKVIKHWFRNTLFKERQ [D8A] | -0.051 ± 0.066 |
| RPRTRITVDQLKILRAYFDINNSPSEEQIQEMAEKSGLSQKVIKHWFRNTLFKERQ [D8V] | -0.015 ± 0.069 |
| RPSTRITDDQLKILRAYFDINNSPSEEQIQEMAEKSGLSQKVIKHWFRNTLFKERQ [R3S] | 0.071 ± 0.079 |
| RPQTRITDDQLKILRAYFDINNSPSEEQIQEMAEKSGLSQKVIKHWFRNTLFKERQ [R3Q] | 0.201 ± 0.13 |
| RPPTRITDDQLKILRAYFDINNSPSEEQIQEMAEKSGLSQKVIKHWFRNTLFKERQ [R3P] | -0.096 ± 0.12 |
| RPVTRITDDQLKILRAYFDINNSPSEEQIQEMAEKSGLSQKVIKHWFRNTLFKERQ [R3V] | -0.037 ± 0.068 |
| RPWTRITDDQLKILRAYFDINNSPSEEQIQEMAEKSGLSQKVIKHWFRNTLFKERQ [R3W] | -0.569 ± 0.09 |
| RPTTRITDDQLKILRAYFDINNSPSEEQIQEMAEKSGLSQKVIKHWFRNTLFKERQ [R3T] | 0.102 ± 0.091 |
| RPYTRITDDQLKILRAYFDINNSPSEEQIQEMAEKSGLSQKVIKHWFRNTLFKERQ [R3Y] | 0.026 ± 0.12 |

Reference: the Human Domainome abundance scans (Beltran et al. 2025)
